According to the domain aggregation screens of Martell et al. (2025):

Assay: soluble fraction after stress (log2 fold change); higher = more stays soluble; pooled small domains, quantitative proteomics
Conditions: stress: 75 degC
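Note: 20 min heating vs room temperature control held 20 min.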

Row | Sequence | soluble fraction (log2)
1 | HMVKDLEIETIRLNNLLASDAEEVLKSLGGAKPTYKAVAVPGSNSLVIEGTKADLIKLKSIINALEDGS | 0.00865
2 | HMVKETNYSFFLKQIDAGTVEQVQIEDTEIKFKVSTADGKEQVYSTVRVEDPDLVDRLYSKGNIDFTGN | -0.0797
3 | HMVKIIHYEVYANRGDGWKLVDQFSADQRQEAVNLAKEIETEDQVAVKIIREIFDVQDNTYQESVEYIG | -1.59
4 | HMVKLDDLTGQDKATAEATITNSGLKYSEQQEFSDEVEAGKVIRTDPGAGTSSLKAGDTVTVYVSRGPEN | 0.215
5 | HMVKNYYEILEVDKKASPEVIEKAYKTLAKKYHPDLQEAENNGQYEEKMKEINEAYSVLSDEFKRRTYDEQ | 0.123
6 | HMVKSYEVPDVSNLTVLEAEAKLQEMGFEIDEEQKEISSSDIESGRVVKTSPQAGSKRKEGAIITLYVSSG | 0.65
7 | HMVKTANVAYSEFLKLVESDNISDVSIVGRTITGHLDDGTKFSTYTPPNDPSLIDKLTRKNVIIKSAPE | 0.0585
8 | HMVKVEVKPNVLQWVIKRMDNFDRLKDQFPNIDKWINQESQPTLKQLEKLAKMTAVPLGYFFLPNPPEEK | -1.12
9 | HMVLELRIGQIVRGVLLQLVGEREGIVSVGGVPVRARLEAEIPLGRGVMLQVQPGSDANNILLKPV | -3.01
10 | HMVLENLKKFIDSKGISVSAFEKSIGMSNNSFRKSLNSGGHIGSDKLENILKIYPELNPVWLLQGEGEML | -0.589
11 | HMVLGSSVAMGQKIGDSDLTWVEVPLSSAFDRFLSEPEWRGSSDLVAARLLEAGVFLTEDDVVE | 0.0533
12 | HMVLLGAAIRELRIQKGITIEELAEMSGLSTGLISKIERDLGNPSISSLRKISRALGVPTAFFFA | -3.28
13 | HMVLSKGAKELLDFIMREGEVTTSKVVQKFGGSAQNASAKLKKLYATGLILGSKAVAESGGLEFVYKA | 0.256
14 | HMVLSVRERMGIVLEKVNTETFTDFKELFTVEEGRAGAIVSLLAILQLMKDSLIQLVQNEPNGPIYVKAA | -0.879
15 | HMVLTSFHDNFPKTGTTYTVRSGDTISGIATKFGSTRDWIQNANEISHPKYLQVGRTLFIPH | -0.302
16 | HMVMATPHNTAKAGDIAKTVIMPGDPLRAKYIADNYLDNAVQFNVVRNIYGYTGVYRGTDISVMASGM | 0.212
17 | HMVMETLAERINTALQTKGLSVNALARRVGVSYPAMRKITKGETLNPKFLFEIAEALGVSVEWLKTGEGSP | -1.34
18 | HMVMNKQEFLKILRDTLQSQLSSRETENHVEYYRTYIEEQMREGKTEIEILDVLGDPRLIARTILET | -0.193
19 | HMVMSTDAELILEYLAKHQGEMEITDKSSPELIMDTFNMSKGAFKRALGSLYKSKTVVIESTKVLLNT | -1.44
20 | HMVNDQSIYASEGYVHIRSGKPVSLRIYTILGALYRHEERLVGDHVIALPRGLYIVVLNHTAKKIMV | -0.657
21 | HMVNEALDEFFVGLKNLYESATGKPAIAGAHFDGEPKTDFEKLMYLGYQIIRPAQAYPSALKAYERAIARS | -0.145
22 | HMVNHEERKRLIAEATWRTISHVGIEQASVRTIAKEAGLSLGALRYYFTTQEELLRFSMQLVQERV | -0.0767
23 | HMVNIEAEVGRRLRQLRARRGLSLRALADLSGLNVNTLSLIENSKTSPSVSTLQQLARSLQVPITTFFESD | -1.36
24 | HMVNKQERTYTILRDRIHSGSFAPLERLNIDALARELGVSPIPVREALRRLEAEGWVRFTPNVGAVVSP | -0.509
25 | HMVNLLVTPLEELEINFRTLRALRKYNIYQLEDLLRFIKYNGFDALRIVPGMGIKSTEQLYEKLKDKNI | -0.112
26 | HMVNTVEVQGNTIYSAEEIRSASGIQKGDNLFTLNKEAAAGSIKASLPYVETVSIIRFLPDKIVIEVKE | -0.57

Row | Sequence | soluble fraction (log2)
27 | HMVNVLKNSTVIDLVKNNLSDALIISLIRRAKVDFSLMTDDVIELSGKGVSPAVIMEMRQAMIRQASEIQN | -0.318
28 | HMVNVTEAIDLENGTGKLSGTFNHEPKSAEEIIFLLKIDTNKWKLSQYWNKQMGDHWRVSALISQI | -2.82
29 | HMVPAMEVALEDARRAIEQVVSGERTSVQLSSQEAMIRKLQHQMAKDANLFSRSSGVEPQRRVTIYTN | 0.0142
30 | HMVPHQPRVWTNTAGKTITAAFVRFNAAGRKVSLKLEKGRQVELPLASLSGNDVDWIKEHVPEAMSNQE | -1.06
31 | HMVPISGADFEKLSDYILQKAGAGSIQVKELLAGLKGMHEKNLWKAIDYLLAEEKIRIDKGGNISVK | -0.322
32 | HMVPQAVQDIKAYLASGALPYIGPATAKKIVAMFGSDALDVIAEHPEQLTAIRGLNEEKANAIHQEFRRQF | -0.259
33 | HMVPSSHNIAQKVKQIKINDLWLDVRERYIYLKNLYLSHPLEKDHPSFIVYVEAVNQIYNQYF | -0.0707
34 | HMVQDDLRELEGISTELLAKLADAGITNRDDLADLAIDELVAITGQSEDDAKALIMKAREHWFAGDA | 0.0246
35 | HMVQIIQLQGTDKRLYELVAPLVMNPEILKQNYNYPFRTSEDFVWFVAVDKKKVIGFIPVEEKKKEYVI | -0.108
36 | HMVRKGEINFDQLSVRARNALRNMNILFEKEILKLTEYDLKSIPNLGVKTTNELLSYIKRLQTNQKEE | -1.47
37 | HMVRRSERLHALTESLRRSGNRGRTAEQLATEFEVSVRTIKRDLVALEASGLPLWSRPGPGGGYGLLS | -0.953
38 | HMVRTIKILGIKHNINLYYKNVKVPTMNVKNQTLEIILPNKYKKFQEEQILKVLTQKLYDKIAETEIEKIK | -1.11
39 | HMVSAEQNTLEFIKENVKEDVIEDDIEFYKSLLEDWSVEVDNSSKLLDPGNNNSLLAVIAYSIENEL | 0.232
40 | HMVSDAWITGKVKSQLLADDVTPGMKIDVDTEDRIVSLKGTVPSLTARNEAIRIASHTKGVRTVDADELIV | 0.17
41 | HMVSFAEQASDWLAHFDRLGDVGPDTTLTDLTARDAEFSAWVNEGIHHRVAFLETLAAWHRTER | -0.627
42 | HMVSGLEILKIQVQDHPSDWRWALLLARTHYENGNREAAVRTLRPLQRLHPDRLEVMTLWALLA | -0.194
43 | HMVSGSPTVDILMQRGLEYQQQENLEAARDAFDRAINLKPDYAEAWNRRAVLFFNEGKYDEAIADLETAIT | 0.136
44 | HMVSKEELANSIYENKTADELGNIVLRKGKYSGEMLRTIYVKDIGYLEWHSKQSYEYSNAVKWYLKKLE | -1.37
45 | HMVSLEEIINDLTSRIQTAVKMRFSDFVQNRKERVGVIVSFLGMLELVKQGIIDIKQEGHFADIEMETA | -0.347
46 | HMVSLSENQKIVLESLNTAMSARELMEILNLSDISHFRRNILNPLLLEGLIVRTKPDKPKSSKQKYIKANF | -1.69
47 | HMVSPEVEMLRAAVETMSERQKQVYELHYLRGFNVKETAAILGMSSPTVTAHKKRIMEIIKKFFE | -1.46
48 | HMVSPFQQQIADKVHNEIIAAKFNYDNATNENERLLAQLQAKKARELANQYGLDMSSYGADTTAERS | 0.61
49 | HMVSSAEQQARDKESGMILVQEAGGPDKARALVEKMRQDIRNPALDGTRRQMLRGHVARIELALAELETG | -0.0254
50 | HMVSVGDIFAGRIISNENGHLLLQLLDGSKISAQTVTDLKYNIGDVLNLEIIEEKQGLIFVRQT | -2.05
51 | HMVSVLGRRIKELRLQNSMTQMQLAKKLGYKGNSLVAGWELGKNYPSVSSIKRLSEIFDTDLMKYVG | -2.53
52 | HMVTDTGAIEKVIDEVIAANPKQVQEIADQRAAGHEKPKTLGWLVGQIMKASGGKVNPAAVNEILLKKLG | 0.0887

Row | Sequence | soluble fraction (log2)
53 | HMVTFDEISQSLVRDVAARRSLSVQTLHAMVDRYNAGSSINAVANQYGIDRLKLREILIELGVHVAT | -2.4
54 | HMVTLQEVKQYLRIDFEEEDPLLLSLLATAKQQVMNVGRMDEAQLSEHEDTARTAILYAVSYLYENRN | -1.82
55 | HMVTPAQQARDTLLGALVGLARATTSEPKTDDTDVVLNAGLRLAAQPDAPEERLQRMLAIVQTEKHRV | 0.138
56 | HMVTVNAFGKSGPEPAAMTKEALAKGADEVRVIVDSPTAAASVRDFLIGAGLRVQLQDDEGQLIVVGEKK | 0.318
57 | HMVVDEQRIQTLVSAAEQNSSDPVPRVTLGNLYFDAEQFEEAVKWYEQALALDPRNVNVSTDLGVGYYY | 0.113
58 | HMVVKLTQEQDRFIKTFNDKSLAFYYISSWGWGSFLRNGIGGVYEGDKTPFTLDEKEKMLNAIINGYEVI | -2.02
59 | HMVVKSPLEMAFDKFREMRKKIRKPMTERAEELIWKELSKLAGEDSDLKIEILEQSIRNGWQDVYAVK | -0.623
60 | HMVVLPGEVVALKIIQTGSSKDQGVGYLEDGTMVVVDGAKNSIGKTIEIQISRSHQTVAGRMLFGIAMS | -2.72
61 | HMVVQTELVRISITSLSGEDIRRLVQIKVVGATIEPFEGGGFLITGTAEQIAKAKDFLNSMSTEF | -2.42
62 | HMVVRKHDRYYTPEHRKLLMDTYERTNKYPTKQDMSELAKIIGVLPIKILWWYTHRRRQDRRKGEESSSP | 0.0496
63 | HMVVTMEKIVVNDGGIRIDTYLADKLNISRSKVAKMLENNILVNNVKVKPSYKVTNNDIIEVEEYV | -1.86
64 | HMVVVLPGETIKIDLIREGKDKQALGYLEDGTMIVVDNAKHLIGKNVEIEIDNVLPKEAGRVIFASLHGA | -0.388
65 | HMVVVMNADAEADEIKRVKWNLEQMLFRTQVIYGVKRIVIGAIGDQREVDLSEIEQMPKVDKIVRISK | -2.24
66 | HMVVVPDVKGLKIEEAAEFFKNNNLHYNVIDSVFSKDVEPGAIVELSPLAGSKVKEGRIVFITVNALTS | -1.12
67 | HMVVVVELTENEKAVQDVLTKNEGSLEISDLKTKLELSGKQWDKALKGLAKHGITQVAKVDGVVTVSL | -0.381
68 | HMVWMIEKDQSVILVNKLERIQVEALGKALENGNFGDRIRVINNKSGQKLLGIVESEKKIQIISKI | -2.92
69 | HMVYLPGEEIPLKIIQEGKESGQGVGYLEDGTMVVVENGRRYLNQEVLVQVTKILQTNAGRLIFAVP | -2.6
70 | HMVYLPSSIKNIPTKYGEMMVANFKMDELQANSKNGWVSMVISERREPSEKGATHYAYVNTY | 0.484
71 | HMVYNQYILTQSVRLREEPGISGRVIRLLETGTTVELVDTVVVNKDDYDWVWVKLSDGAVGWIIKSAIDI | -1.57
72 | HMWDEMKDQKLVEALLLLREDERKLIYQHVFEERTFDDISRINGLPPYKVKGIYYYAIRKIRKWMG | -2.26
73 | HMWGQDVLFTIDKKEFKGKLLEQSDKHTTFLPDGQKTPQKIPNRLIKEIHLGSNKIIDFGNDFLI | -0.19
74 | HMWPDDAIALPTRDGQDVGGAQERTMLAFASGAAGIRTVEEINPDGSITRLRTRYGWPTFETEGARTAAAE | -0.0272
75 | HMWTIDPLDWKTENADQIVEKVMSEAKENAIILLHDRYEASVEAALRIVDLLKEQGYTFVTADKLV | -0.154
76 | HMWTKKELWNAIAKLPKKQRTVVMMRIAQNLPYKDISEITGMSIGSAKVNYHHAVNSLKQWLS | -0.746
